Data as given in PMC8675206.

Assays:
DNA-PKcs;Ku70;Ku80 = DNA-PKcs;Ku70;Ku80 (Homo sapiens (HeLa cells);Homo sapiens …, UniProt P78527;P12956;P13010 1-4128;2-609;2-732, ||); assay: pull-down
DNA-PKcs = DNA-PKcs (Homo sapiens (HeLa cells), UniProt P78527 1-4128); assay: HX-MS on bead-captured DNA
Sequence of DNA-PKcs (P78527 whole entry): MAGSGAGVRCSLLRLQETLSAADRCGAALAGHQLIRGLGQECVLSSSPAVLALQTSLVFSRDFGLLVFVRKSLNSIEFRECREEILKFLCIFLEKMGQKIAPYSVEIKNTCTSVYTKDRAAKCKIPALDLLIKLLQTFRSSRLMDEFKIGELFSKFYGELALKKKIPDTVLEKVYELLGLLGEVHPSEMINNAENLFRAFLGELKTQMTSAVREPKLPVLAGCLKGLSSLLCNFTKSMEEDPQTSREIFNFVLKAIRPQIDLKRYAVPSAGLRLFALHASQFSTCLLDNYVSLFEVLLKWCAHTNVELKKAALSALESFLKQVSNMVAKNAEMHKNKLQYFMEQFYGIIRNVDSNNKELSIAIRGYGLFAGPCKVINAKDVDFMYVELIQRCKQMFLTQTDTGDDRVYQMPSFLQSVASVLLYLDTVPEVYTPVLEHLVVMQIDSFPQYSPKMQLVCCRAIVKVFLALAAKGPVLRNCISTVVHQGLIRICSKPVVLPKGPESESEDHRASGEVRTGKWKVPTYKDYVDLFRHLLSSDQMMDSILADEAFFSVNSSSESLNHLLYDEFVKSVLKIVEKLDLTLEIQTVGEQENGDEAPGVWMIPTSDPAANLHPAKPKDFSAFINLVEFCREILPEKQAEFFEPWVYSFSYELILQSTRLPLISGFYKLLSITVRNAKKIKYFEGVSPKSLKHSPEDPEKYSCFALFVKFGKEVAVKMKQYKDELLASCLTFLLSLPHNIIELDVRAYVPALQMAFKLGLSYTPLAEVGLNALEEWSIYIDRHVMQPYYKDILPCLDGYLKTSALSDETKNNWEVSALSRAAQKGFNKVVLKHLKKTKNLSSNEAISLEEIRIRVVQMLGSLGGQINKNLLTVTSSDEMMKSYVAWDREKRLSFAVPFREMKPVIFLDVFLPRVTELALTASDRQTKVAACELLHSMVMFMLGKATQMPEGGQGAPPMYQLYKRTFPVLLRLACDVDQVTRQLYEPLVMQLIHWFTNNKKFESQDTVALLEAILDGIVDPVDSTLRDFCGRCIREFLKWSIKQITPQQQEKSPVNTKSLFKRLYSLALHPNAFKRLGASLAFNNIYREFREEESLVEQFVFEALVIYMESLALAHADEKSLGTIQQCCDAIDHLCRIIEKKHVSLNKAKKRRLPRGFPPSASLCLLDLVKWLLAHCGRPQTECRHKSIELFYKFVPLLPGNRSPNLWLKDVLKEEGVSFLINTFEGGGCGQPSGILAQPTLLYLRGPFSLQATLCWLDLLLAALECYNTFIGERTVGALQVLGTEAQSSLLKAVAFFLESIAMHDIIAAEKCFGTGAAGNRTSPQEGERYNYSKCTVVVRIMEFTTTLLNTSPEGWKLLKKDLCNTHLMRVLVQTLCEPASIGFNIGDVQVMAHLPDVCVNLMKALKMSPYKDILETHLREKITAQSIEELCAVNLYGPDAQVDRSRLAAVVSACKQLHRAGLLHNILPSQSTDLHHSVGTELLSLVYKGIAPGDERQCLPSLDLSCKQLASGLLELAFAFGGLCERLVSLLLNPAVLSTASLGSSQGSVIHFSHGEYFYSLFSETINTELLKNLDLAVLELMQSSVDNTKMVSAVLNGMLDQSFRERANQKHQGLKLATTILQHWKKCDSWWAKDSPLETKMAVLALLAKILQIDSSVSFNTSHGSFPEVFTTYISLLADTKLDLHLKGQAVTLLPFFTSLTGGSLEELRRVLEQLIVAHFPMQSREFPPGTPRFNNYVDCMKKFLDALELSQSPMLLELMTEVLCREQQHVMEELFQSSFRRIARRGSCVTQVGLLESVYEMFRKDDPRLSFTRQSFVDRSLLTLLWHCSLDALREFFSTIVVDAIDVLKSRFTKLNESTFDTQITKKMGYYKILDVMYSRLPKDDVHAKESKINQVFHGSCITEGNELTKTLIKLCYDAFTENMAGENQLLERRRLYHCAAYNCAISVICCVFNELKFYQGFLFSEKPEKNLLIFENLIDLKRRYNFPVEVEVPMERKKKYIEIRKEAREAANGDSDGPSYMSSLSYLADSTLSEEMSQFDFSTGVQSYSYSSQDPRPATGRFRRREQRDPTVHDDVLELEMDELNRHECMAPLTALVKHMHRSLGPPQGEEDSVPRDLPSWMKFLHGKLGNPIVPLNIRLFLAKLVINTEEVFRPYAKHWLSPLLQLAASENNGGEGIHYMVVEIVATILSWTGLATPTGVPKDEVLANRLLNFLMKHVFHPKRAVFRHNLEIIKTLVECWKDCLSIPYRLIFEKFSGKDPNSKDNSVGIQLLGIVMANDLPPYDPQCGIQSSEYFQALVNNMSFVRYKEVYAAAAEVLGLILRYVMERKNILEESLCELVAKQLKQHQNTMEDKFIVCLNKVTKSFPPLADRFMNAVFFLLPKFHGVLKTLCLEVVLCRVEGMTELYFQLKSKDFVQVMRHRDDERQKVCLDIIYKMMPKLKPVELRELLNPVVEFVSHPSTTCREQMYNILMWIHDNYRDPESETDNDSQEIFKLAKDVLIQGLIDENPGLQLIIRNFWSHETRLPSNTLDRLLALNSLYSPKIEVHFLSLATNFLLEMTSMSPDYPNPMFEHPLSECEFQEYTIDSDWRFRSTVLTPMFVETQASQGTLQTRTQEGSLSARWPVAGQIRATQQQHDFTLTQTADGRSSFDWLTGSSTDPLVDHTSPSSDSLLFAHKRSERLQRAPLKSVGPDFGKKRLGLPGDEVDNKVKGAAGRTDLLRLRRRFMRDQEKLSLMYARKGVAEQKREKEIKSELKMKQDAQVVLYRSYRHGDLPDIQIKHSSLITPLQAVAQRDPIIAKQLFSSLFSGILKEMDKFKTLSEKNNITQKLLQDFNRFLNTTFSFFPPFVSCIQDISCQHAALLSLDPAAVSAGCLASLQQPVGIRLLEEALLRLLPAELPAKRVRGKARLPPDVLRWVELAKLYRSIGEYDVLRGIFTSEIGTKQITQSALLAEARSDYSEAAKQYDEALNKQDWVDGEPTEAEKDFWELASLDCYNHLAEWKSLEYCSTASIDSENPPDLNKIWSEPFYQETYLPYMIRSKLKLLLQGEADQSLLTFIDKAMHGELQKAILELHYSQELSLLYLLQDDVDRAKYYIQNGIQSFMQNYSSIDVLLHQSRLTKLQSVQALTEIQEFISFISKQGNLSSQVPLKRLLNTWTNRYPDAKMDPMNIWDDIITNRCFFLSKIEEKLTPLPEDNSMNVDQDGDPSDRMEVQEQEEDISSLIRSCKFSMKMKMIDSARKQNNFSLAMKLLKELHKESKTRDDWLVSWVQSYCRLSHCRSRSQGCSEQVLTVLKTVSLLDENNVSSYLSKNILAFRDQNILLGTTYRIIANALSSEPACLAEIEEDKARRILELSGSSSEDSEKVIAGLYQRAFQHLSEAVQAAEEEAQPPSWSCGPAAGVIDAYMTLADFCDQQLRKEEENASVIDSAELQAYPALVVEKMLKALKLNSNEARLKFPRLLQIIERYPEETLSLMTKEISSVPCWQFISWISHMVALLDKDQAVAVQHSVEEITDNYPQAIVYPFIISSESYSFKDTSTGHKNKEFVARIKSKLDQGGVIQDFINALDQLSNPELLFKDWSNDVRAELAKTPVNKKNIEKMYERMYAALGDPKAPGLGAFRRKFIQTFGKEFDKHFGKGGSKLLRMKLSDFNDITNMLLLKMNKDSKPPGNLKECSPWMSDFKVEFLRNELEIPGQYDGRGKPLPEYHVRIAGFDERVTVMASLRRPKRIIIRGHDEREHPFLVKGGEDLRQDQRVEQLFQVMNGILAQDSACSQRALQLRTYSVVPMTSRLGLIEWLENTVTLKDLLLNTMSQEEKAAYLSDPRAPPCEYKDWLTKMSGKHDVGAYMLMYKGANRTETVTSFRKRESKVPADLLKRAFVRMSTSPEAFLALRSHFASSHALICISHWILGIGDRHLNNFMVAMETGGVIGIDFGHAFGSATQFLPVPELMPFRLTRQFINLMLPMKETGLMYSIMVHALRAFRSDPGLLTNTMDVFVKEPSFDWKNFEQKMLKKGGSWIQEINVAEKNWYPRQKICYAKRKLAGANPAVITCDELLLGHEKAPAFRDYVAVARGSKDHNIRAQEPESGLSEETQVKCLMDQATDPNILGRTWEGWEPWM

B1: 100bp blunt (dsDNA)
DNA 1: GCACAATCTTCTCGCGCAACGCGTCAGTGGGCTGATCATTAACTATCCGCTGGATGACCAGGATGCCATTGCTGTGGAAGCTGCCTGCACTAATGTTCCG
DNA 2: CGGAACATTAGTGCAGGCAGCTTCCACAGCAATGGCATCCTGGTCATCCAGCGGATAGTTAATGATCAGCCCACTGACGCGTTGCGCGAGAAGATTGTGC
Question: Does B1 bind (DNA-PKcs;Ku70;Ku80)?
Answer: Result: binds

B2: 25bp blunt (dsDNA)
DNA 1: AAGCTTGCATGCCTGCAGGTCGACC
DNA 2: GGTCGACCTGCAGGCATGCAAGCTT
Question: Does B2 bind (DNA-PKcs)?
Answer: Result: binds
